Target: HA-ASIC2a (mouse acid-sensing ion channel 2a, HA epitope-tagged) (mouse) (UniProt Q925H0)
Sequence of UniProt Q925H0 (Q925H0 whole entry): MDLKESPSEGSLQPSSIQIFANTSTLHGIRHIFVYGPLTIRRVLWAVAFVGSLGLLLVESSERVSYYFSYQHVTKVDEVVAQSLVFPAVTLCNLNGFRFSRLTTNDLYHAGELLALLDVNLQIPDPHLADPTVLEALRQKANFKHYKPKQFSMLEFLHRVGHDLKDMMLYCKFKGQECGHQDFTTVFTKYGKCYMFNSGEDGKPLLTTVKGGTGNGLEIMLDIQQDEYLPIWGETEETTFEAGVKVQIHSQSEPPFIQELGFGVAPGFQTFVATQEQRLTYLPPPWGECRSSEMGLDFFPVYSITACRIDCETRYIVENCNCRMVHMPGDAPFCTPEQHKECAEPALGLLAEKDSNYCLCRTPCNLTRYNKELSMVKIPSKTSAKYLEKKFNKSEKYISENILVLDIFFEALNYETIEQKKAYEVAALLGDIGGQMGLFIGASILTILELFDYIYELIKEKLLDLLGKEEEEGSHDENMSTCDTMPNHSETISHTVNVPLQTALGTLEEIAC

pH50 of activation of acid-evoked currents in CHO cells coexpressing ASIC1a and ASIC2a (whole-cell patch clamp); ASIC1a alone pH50 = 6.7, ASIC2a alone pH50 = 4.0: 5.4 pH
B1: ASIC1a (mouse acid-sensing ion channel 1a) (natural protein)
chain: MELKTEEEEVGGVQPVSIQAFASSSTLHGLAHIFSYERLSLKRALWALCFLGSLAVLLCVCTERVQYYFCYHHVTKLDEVAASQLTFPAVTLCNLNEFRFSQVSKNDLYHAGELLALLNNRYEIPDTQMADEKQLEILQDKANFRSFKPKPFNMREFYDRAGHDIRDMLLSCHFRGEACSAEDFKVVFTRYGKCYTFNSGQDGRPRLKTMKGGTGNGLEIMLDIQQDEYLPVWGETDETSFEAGIKVQIHSQDEPPFIDQLGFGVAPGFQTFVSCQEQRLIYLPSPWGTCNAVTMDSDFFDSYSITACRIDCETRYLVENCNCRMVHMPGDAPYCTPEQYKECADPALDFLVEKDQEYCVCEMPCNLTRYGKELSMVKIPSKASAKYLAKKFNKSEQYIGENILVLDIFFEVLNYETIEQKKAYEIAGLLGDIGGQMGLFIGASILTVLELFDYAYEVIKHRLCRRGKCQKEAKRNSADKGVALSLDDVKRHNPCESLRGHPAGMTYAANILPHHPARGTFEDFTC
